Positions count from the first letter of the chain named. “Also recorded” adds a separate entry of the source.
B1: SVAR Luc-1: Engineered luciferase derived from Metridia longa luciferase, amino acid sequence SEQ ID NO: AA1, encoded by SEQ ID NO: 1 (protein)
chain: MEAEAERGKSPGKKLPLAVIMEIEANAFKAGCTRGCLICLSKIKCTAKMKVYIPGRCHDYGGDKKTGQAGIVGAIVDIPEISGFKEMEPMEQFIAQVDRCASCTTGCLKGLANVKCSELLKKWLPDRCASFADKIQKEVHNIKGMAGDR
modifications: NO.1 (1)..(450) SEQ ID NO.1
B2: SVAR Luc-2: Engineered luciferase derived from Metridia longa luciferase, isoleucine 106 to valine, SEQ ID NO: AA2, encoded by SEQ ID NO: 2 (protein)
chain: B1 chain with I94V
modifications: NO.2 (1)..(450) SEQ ID NO.2

Columns and labels:
[1] = tested on: NFkB recognition sequence chimeric promoter in HEK293 cells; experiment: Transient transfection of HEK293 cells, luciferase genes under NFkB responsive chimeric promoter, treated with TNF (FIG. 3B); assay type: cell-based, human; details: compared with native Metridia longa luciferase gene; for luminescence / luciferase activity, relative light units (RLU): 100 ng/ml TNF for 6 hours at 37° C.
Protocol: FIG. 3B illustrates the response of HEK293 cells following transient transfection of cells with the novel Svar vector encoding either the wild type Metridia longa luciferase gene, or the Svar luciferase 1 or the Svar luciferase 2 genes each under the control of a chimeric promoter consisting of a SV40 minimal promoter and a 6-fold tandem repeat of the canonical NFkB recognition sequence and treated with 100 ng/ml of TNF[…] for 6 hours at 37° C. prior to quantification of the luciferase signal using a commercially available coelenterazine based “glo” substrate (QuantiLuc Gold, Invivogen).

[2] = tested on: HEK293 cells; experiment: Rate of loss of luciferase activity in supernatant of transiently transfected HEK293 cells (FIG. 6); assay type: cell-based, human; details: CMV promoter, room temperature, QuantiLuc Gold, compared with wild type Metridia longa luciferase
Description: FIG. 6A illustrates the rate of loss of luciferase activity in the supernatant of HEK293 cells following transient transfection of cells with the luciferases genes indicated, each under the control of a constitutive CMV promoter, and quantification of luciferase activity at increasing times at room temperature using a commercially available coelenterazine based “glo” substrate (QuantiLuc, Gold Invivogen).

[3] = tested on: NFkB recognition sequence chimeric promoter in HEK293 cells; experiment: Clonal HEK293 cell line stably transfected with NFkB responsive reporter gene, increasing TNF (FIG. 7); assay type: cell-based, human; details: stable HEK293 clone, increasing TNF for 6 hours at 37° C., QuantiLuc Gold
Description: FIG. 7 illustrates the response of a clonal cell line of HEK293 cells stably transfected with a reporter gene comprising the sequence set forth in SEQ ID NO: 1 under the control of a chimeric promoter consisting of a SV40 minimal promoter and a 6-fold tandem repeat of the canonical NFkB recognition sequence treated with increasing concentrations of TNF[…].
HEK293 cells were transfected with the Svar luciferase Luc-1 gene under the control of a chimeric promoter consisting a SV40 minimal promoter and a 6-fold tandem repeat of the canonical NFkB recognition sequence and stable clones were isolated and characterized.

[4] = tested on: transfected mammalian cells; experiment: Comparison of luciferase properties with other luciferases (Table 2); assay type: cell-based; details: relative to other native or engineered luciferases reported in the literature
Description: FIG. 12 illustrates Table 2 showing a comparison of the properties of the luciferase encoded by the sequence set forth in SEQ ID NO: 1 and SEQ ID NO:2 and comprising the amino acid sequence encoded by the sequence set forth in AA1 and AA2 relative to those of other native or engineered luciferases reported in the literature.

[5] = tested on: NFkB recognition sequence chimeric promoter in K562 cells; experiment: K562 clonal cell lines stably transfected with NFkB responsive reporter gene, increasing TNF (FIG. 8); assay type: cell-based, human; details: stable K562 clones, increasing TNF for 6 hours at 37° C., compared with firefly luciferase under same promoter
Description: FIG. 8 illustrates a comparison of the response of K562 cells stably transfected with either the luciferase gene comprising the sequence set forth in SEQ ID NO: 1 under the control of a chimeric promoter consisting of a SV40 minimal promoter and a 6-fold tandem repeat of the canonical NFkB recognition sequence and K562 cells stably transfected with the firefly luciferase gene comprising the open reading frame encoding the firefly luciferase protein under the control of the same NFkB responsive promoter and treatment of cells with increasing concentrations of TNF[…] for 6 hours at 37° C.
K562 cells originally derived from a chronic myelogenous leukemia (ATCC, catalogue number CCL-243) were transfected with either the Svar luciferase Luc-1 gene or firefly luciferase gene each under the control of a chimeric promoter consisting a SV40 minimal promoter and a 6-fold tandem repeat of the canonical NFkB recognition sequence. Stable clones were isolated and characterized. The clonal cell lines were treated with increasing concentrations of TNF[…] for 6 hours at 37° C. (FIG. 8).

[6] = tested on: HEK293 cells; experiment: Transient transfection of HEK293 cells, luciferase genes under constitutive CMV promoter, luciferase activity in supernatant (FIG. 3A); assay type: cell-based, human; details: 18 hours at 37° C., QuantiLuc Gold, compared with native Metridia longa luciferase and other luciferases
Protocol: FIG. 3A illustrates the response of HEK293 cells following transient transfection of cells with the novel Svar vector encoding the luciferases genes indicated, each under the control of a constitutive CMV promoter, and co-transfection of cells with firefly luciferase under the control of a constitutive thymidine kinase (TK) promoter. Luciferase activity was quantified in the cell supernatant after 18 hours incubation of cells at 37° C. using a commercially available coelenterazine based “glo” substrate (QuantiLuc Gold, Invivogen). The cells were then lysed and firefly luciferase activity was quantified with BrightGlo (Promega).
A series of deletion mutants of the 5′ coding region of the native Metridia longa luciferase gene were designed in silico, synthetized in vitro and tested in transient transfection experiments. The nucleotide sequence of the native Metridia longa gene luciferase gene is illustrated in FIG. 1 and the amino acid sequence in FIG. 2.
A series of random mutation were introduced into the coding sequence of the native Metridia longa luciferase gene using oligonucleotides carrying a single or multiple mutations (FIG. 4). The oligonucleotides were synthetized in vitro and tested in transient transfection experiments in human the HEK293 cell line originally derived from human embryonic kidney cells grown in tissue culture (ATCC Catalogue CRL-1573).

Molecule | luminescence / luciferase activity, relative light units (RLU) [1] | luminescence / luciferase activity, relative light units (RLU) ([1]; listed as Svar luciferase 1) | dynamic range relative to control samples in the absence of the pharmacology active substance [1] | signal stability and/or signal duration [2] | relative light units (RLU) and fold induction relative to control not treated with TNF [3] | toxicity for transfected mammalian cells [4] | relative light units (RLU) values [5] | luciferase activity / light output (brightness), relative light units (RLU) [6] | luminescence / luciferase activity, relative light units (RLU) ([1]; listed as Svar luciferase 2) | luciferase activity / light output (brightness), relative light units (RLU) ([6]; listed as Svar luciferase 2)
B1 | increased luminescence including increased light output (brightness) | enhanced luciferase activity relative to the wild type gene | higher dynamic range | increased signal stability and/or signal duration | high levels of both relative light units (RLU) and fold induction | absence of toxicity | markedly higher relative light units (RLU) values | increased light output (brightness) | – | –
B2 | increased luminescence including increased light output (brightness) | – | higher dynamic range | increased signal stability and/or signal duration | – | – | – | improved activity relative to the native Metridia longa luciferase; also recorded: equivalent or slightly reduced activity relative to SVAR Luc-1 luciferase | enhanced luciferase activity relative to the wild type gene | increased light output (brightness)

Source: patent US20250270518A1, “NOVEL LUCIFERASES WITH IMPROVED PROPERTIES” (SVAR Life Science AB, priority 2021, published 2025)
